Changes are numbered by the printed parent chain. Names and notes keep the numbering of the source. Each block holds one binder with its values, some of them ahead of it.
Assays:
laminin α-4 = laminin α-4 (UniProt Q16363 25-1823); test: FACS on MCAM mutants displayed on mammalian cells
[1] = target: T1, human MCAM expressed on CHO cells (full length human MCAM gene) (human, UniProt P43121 24-646); test: flow cytometry: blocking of recombinant human laminin 411 (20 ug/ml) binding to CHO cells expressing human MCAM
T1 construct: also called hMCAM expressing CHO cells; CD146
T1 chain: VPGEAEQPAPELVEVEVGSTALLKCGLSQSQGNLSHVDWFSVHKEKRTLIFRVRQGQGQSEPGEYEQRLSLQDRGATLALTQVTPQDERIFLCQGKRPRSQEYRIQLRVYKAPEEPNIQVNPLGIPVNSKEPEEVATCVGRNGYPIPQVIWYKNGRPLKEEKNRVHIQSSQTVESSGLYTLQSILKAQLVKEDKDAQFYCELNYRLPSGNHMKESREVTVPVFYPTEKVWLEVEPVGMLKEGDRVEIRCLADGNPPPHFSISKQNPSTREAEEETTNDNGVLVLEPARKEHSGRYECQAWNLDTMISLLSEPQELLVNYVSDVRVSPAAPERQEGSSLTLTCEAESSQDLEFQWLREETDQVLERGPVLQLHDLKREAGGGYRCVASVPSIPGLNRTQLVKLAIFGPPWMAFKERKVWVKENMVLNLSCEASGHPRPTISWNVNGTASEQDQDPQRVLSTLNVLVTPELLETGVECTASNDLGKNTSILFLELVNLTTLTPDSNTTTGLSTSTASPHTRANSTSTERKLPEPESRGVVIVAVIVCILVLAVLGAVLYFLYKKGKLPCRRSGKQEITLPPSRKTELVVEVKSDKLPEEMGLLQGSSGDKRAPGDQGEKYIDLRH
Method: The 87 independent mouse fusion clones and 26 independent rat fusion clones described in Example 1 above as being capable of (i) binding to human MCAM, and (ii) blocking the interaction between human MCAM and the α-4 chain of laminin were further characterized as follows. First, IC50 quantitation for the ability of the monoclonal antibody to block the binding of human MCAM to the α-4 chain of laminin was determined as follows. CHO cells expressing human MCAM were incubated with an anti-human MCAM antibody (at various concentrations) for 30 minutes at 4 degrees Celsius. […] Unbound laminin was then washed away, and the laminin bound to the surface of the cells was detected with fluorescently labeled anti-laminin antibodies. After washing, the amount of laminin bound to the surface was detected by flow cytometry, and IC50s were calculated based on the mean fluorescent intensity.
Amino acid and nucleic acid sequences of the heavy and light chains of these antibodies, and their hypervariable regions, are provided in SEQ ID NOs:29-92. […] As such, each of these specific monoclonal antibodies was very capable of binding to human MCAM and inhibiting the interaction of cell-expressed human MCAM with its α-4 laminin binding ligand.

[2] = target: T2, human MCAM domain 3 hFc construct (human, UniProt P43121 244-321); test: ForteBio Octet Red, MCAMhFc domains on anti-human IgG Fc sensors, antibody at 5 ug/ml
T2 construct: One of the 'various MCAMhFc domains' loaded on the ForteBio sensors; also called MCAMhFc domain 3
T2 sequence: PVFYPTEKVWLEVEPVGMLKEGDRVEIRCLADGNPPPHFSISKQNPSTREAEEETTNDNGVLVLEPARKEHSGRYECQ
Text: (§1) The following protocol was used: ForteBio anti-human IgG Fc biosensors were used to immobilize various MCAMhFc domains including full length MCAMhFc protein on to biosensor surface. […] After loading these samples into a black 96 well plate, the Octet Red was programmed as follows: 60 seconds for baseline #1; 180 seconds for loading various domains; 60 seconds for baseline #2; 180 seconds for association of antibody to domain; and 240 seconds for dissociation of antibody from domain.
(§2) Reagents and Supplies Used: [0358] 1. MCAMhFc final concentration @ 5 ug/ml [0359] […] 3. ForteBio anti-human IgG Fc Capture (AHC) biosensors for kinetics experiments, cat#18-5060 [0361] 4. Block 96 well plate from Greiner Bio-one, cat#655209 [0362] 5. ForteBio Octet Red machine [0363] 6. Fresh tissue culture medium, DMEM with 20% FCS, was used as buffer for dilution

[3] = target: T3, human MCAM domain 1 hFc construct (human, UniProt P43121 19-129); test: ForteBio Octet Red, MCAMhFc domains on anti-human IgG Fc sensors
T3 construct: One of the 'various MCAMhFc domains' loaded on the ForteBio sensors; also called MCAMhFc domain 1
T3 sequence: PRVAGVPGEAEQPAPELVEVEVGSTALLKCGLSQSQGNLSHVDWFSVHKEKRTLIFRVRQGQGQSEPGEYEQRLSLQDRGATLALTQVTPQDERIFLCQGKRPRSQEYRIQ
Text: as §1, §2

[4] = target: T4, human MCAM domains 1 and 2 hFc construct (human, UniProt P43121 19-242); test: as above
T4 construct: One of the 'various MCAMhFc domains' loaded on the ForteBio sensors
T4 sequence: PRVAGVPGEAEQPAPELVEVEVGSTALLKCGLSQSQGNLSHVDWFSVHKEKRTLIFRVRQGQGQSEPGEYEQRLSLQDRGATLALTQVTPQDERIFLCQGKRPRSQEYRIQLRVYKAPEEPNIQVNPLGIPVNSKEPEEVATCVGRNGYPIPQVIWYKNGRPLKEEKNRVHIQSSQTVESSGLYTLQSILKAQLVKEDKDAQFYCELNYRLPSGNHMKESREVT
Text: as §1, §2

[5] = target: T5, human MCAM domain 2 hFc construct (human, UniProt P43121 139-242); test: as above
T5 construct: One of the 'various MCAMhFc domains' loaded on the ForteBio sensors; also called MCAMhFc domain 2
T5 sequence: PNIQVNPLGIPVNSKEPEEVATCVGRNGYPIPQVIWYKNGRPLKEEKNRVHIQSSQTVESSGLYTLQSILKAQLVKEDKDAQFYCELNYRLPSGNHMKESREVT
Text: as §1, §2

[6] = target: T6, human MCAM-Fc protein (extracellular domain of human MCAM fused to human IgG) (human, UniProt P43121 24-559); test: summary sentence of Example 3 (ForteBio, MCAMhFc)
T6 construct: also called hMCAM-Fc; MCAMhFc
T6 chain: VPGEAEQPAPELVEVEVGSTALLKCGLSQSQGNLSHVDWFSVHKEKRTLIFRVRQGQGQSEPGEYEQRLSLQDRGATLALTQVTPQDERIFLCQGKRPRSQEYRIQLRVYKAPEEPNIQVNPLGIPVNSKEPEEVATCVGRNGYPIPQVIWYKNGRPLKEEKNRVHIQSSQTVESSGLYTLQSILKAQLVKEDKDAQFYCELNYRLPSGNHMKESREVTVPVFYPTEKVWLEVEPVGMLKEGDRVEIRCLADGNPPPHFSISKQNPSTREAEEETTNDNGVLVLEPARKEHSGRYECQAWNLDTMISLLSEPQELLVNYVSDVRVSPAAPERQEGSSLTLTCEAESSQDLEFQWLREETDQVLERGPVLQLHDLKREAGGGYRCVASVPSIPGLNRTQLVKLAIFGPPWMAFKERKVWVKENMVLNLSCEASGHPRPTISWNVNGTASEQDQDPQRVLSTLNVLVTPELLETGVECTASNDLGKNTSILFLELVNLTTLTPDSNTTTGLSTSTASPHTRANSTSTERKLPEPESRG
Text: as §1, §2

recombinant hMCAM-His [7] = target: T7, recombinant hMCAM-His (human, UniProt P43121 24-559); test: competitive ELISA on coated hMCAM-His, competitor biotinylated rodent or chimeric 2120; IC50 relative to rodent 2120, Expt. #1
T7 chain: T6 chain
Method: (§3) The apparent affinities of the humanized antibodies were compared to the parental rodent or chimeric antibody in a competitive ELISA according to the following protocol: ELISA plates were coated with recombinant hMCAM-His, and blocked with casein buffer to prevent non-specific binding. Biotinylated rodent or chimeric antibody was added at a subsaturating concentration, in the presence or absence of 3× increasing concentrations of unlabeled competitor (humanized antibody, rodent, or chimeric). After washing to remove unbound antibody, streptavidin HRP was added to allow detection of the biotinylated antibody. The ELISA was developed with TMB substrate and the OD450 was measured. The IC50 of the unlabeled competitor was determined using the GraphPad Prism5 software.

recombinant hMCAM-His [8] = target: T7, recombinant hMCAM-His; test: ForteBio Octet Red, antibody on anti-human Fc sensors, hMCAMHis analyte, 1:1 fit; affinity relative to rodent 2120, Expt. #1
Method: (§4) The affinities were measured using the ForteBio Octet Red. Anti-human Fc sensors were used to capture the humanized antibodies, and several concentrations of hMCAMHis analyte were used to determine the affinity using a 1:1 fitting model.

recombinant hMCAM-His [9] = target: T7, recombinant hMCAM-His; test: ForteBio Octet Red, antibody on anti-human Fc sensors, hMCAMHis analyte, 1:1 fit; affinity relative to rodent 2120, Expt. #2
Method: as §4

recombinant hMCAM-His [10] = target: T7, recombinant hMCAM-His; test: competitive ELISA on coated hMCAM-His, competitor biotinylated rodent or chimeric 2120; IC50 relative to rodent 2120, Expt. #2
Method: as §3

Chain of laminin α-4 (Q16363 25-1823): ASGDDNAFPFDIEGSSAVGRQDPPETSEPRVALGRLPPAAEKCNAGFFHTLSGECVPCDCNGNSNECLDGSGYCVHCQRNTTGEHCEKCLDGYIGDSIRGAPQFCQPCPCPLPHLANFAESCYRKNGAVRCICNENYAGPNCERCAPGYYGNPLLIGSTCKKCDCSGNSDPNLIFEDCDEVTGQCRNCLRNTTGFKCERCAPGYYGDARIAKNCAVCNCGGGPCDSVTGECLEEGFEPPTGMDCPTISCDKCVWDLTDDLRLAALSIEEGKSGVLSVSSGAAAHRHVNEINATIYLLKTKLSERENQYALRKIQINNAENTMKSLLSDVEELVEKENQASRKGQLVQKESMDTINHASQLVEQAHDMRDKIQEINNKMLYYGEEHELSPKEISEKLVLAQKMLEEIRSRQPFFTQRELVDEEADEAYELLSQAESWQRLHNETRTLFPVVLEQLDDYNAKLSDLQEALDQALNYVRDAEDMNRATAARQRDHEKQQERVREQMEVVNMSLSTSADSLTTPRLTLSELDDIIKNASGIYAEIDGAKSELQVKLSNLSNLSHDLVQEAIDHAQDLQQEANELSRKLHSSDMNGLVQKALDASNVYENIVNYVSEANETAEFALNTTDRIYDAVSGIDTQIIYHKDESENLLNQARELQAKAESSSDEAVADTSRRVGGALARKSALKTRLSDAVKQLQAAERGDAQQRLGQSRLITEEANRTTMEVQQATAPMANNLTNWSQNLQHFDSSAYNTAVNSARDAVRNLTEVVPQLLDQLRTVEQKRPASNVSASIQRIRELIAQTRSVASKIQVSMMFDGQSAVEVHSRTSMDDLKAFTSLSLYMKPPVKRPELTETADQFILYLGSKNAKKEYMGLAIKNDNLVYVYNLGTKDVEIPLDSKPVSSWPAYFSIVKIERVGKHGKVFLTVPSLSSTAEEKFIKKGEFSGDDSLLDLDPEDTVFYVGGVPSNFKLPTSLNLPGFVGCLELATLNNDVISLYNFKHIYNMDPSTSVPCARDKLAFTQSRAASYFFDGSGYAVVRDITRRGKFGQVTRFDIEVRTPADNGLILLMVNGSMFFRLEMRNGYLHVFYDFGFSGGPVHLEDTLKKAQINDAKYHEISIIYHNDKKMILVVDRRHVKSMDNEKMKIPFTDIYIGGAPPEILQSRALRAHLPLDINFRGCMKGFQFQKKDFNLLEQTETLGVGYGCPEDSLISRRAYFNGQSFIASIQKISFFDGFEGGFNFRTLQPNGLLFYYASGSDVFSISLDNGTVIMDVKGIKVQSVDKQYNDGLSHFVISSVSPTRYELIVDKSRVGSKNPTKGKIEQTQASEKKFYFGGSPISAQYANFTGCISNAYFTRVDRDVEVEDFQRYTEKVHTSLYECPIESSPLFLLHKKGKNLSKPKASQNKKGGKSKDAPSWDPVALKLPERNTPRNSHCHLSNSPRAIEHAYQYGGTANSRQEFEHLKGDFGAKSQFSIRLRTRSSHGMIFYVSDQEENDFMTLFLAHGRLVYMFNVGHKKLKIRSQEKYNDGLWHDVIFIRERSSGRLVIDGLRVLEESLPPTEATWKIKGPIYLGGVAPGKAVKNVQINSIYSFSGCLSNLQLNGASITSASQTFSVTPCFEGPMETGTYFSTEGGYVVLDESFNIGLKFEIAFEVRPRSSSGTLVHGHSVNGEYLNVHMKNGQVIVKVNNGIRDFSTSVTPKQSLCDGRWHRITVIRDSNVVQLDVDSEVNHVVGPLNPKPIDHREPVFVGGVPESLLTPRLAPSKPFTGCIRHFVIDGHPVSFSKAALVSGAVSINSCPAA

B4: mouse anti-human MCAM monoclonal antibody clone 1749.1.3 (antibody, V domains shown)
VH: DVKLVESGGDLVKPGGSLKLSCAASGFTFSSYIMSWVRQTPEKRLEWVATISSGGSSTYYPDSVKGRFTISRDNAKNTLYLQMSSLKSEDTAMYYCTRDDDYDVKVFAYWGQGTLVTVSA
VL: DIVMSQSPSSLAVSAGEKVTMNCKSSRSLLNSRIRKNYLAWYQQKPGQSPKLLIYWASTRESGVPDRFTGSGSGTDFTLTISSVQAEDLAVYYCKQSYNLLTFGAGTKLELK
notes: Mouse hybridoma antibody
IC50 [1]: 0.545 µg/mL | binding result [2]: binds | binding result [3]: no binding (tested: 5 ug/ml) | binding result [4]: no binding (tested: 5 ug/ml) | binding result [5]: no binding (tested: 5 ug/ml) | binding result [6]: binds

B5: humanized anti-MCAM antibody h2120_VH2 + h2120_VL3 (antibody, V domains shown)
VH: QVTLKESGPVLVKPTETLTLTCTVSGFSLTSNGVSWVRQPPGKALEWIAAISSGGTTYYNSAFKSRLSISRDTSKSQVVLTMTNMDPVDTATYYCARRYGYGWYFDFWGQGTLVTVSS
VL: DIQMTQSPSSLSASVGDRVTINCKASQNIYNSLAWYQQKPGKAPKVLIFNANSLQTGIPSRFSGSGSGTDFTLTISSLQPEDFATYYCQQFYSGYTFGQGTKLEIK
notes: Human IgG1 / human kappa; also called h2120VH2VL3; Conservative VH + conservative VL
Fold over rodent (ELISA) (recombinant hMCAM-His [7]): 1.93 fold | Fold over rodent (Forte) (recombinant hMCAM-His [8]): 6.57 fold | Fold over rodent (Forte) (recombinant hMCAM-His [9]): 6.43 fold | Fold over rodent (ELISA) (recombinant hMCAM-His [10]): 2.62 fold

B6: humanized anti-MCAM antibody h2120_VH3 + h2120_VL3 (antibody, V domains shown)
VH: B5 VH with N32S, S68T
VL: B5 VL
notes: Human IgG1 / human kappa; also called h2120VH3VL3; N-S deamidate VH + conservative VL
Fold over rodent (ELISA) (recombinant hMCAM-His [7]): 3.47 fold | Fold over rodent (Forte) (recombinant hMCAM-His [8]): 16.1 fold

B7: mouse anti-human MCAM monoclonal antibody clone 1415.1.1 (antibody, V domains shown)
VH: QVQLQQPGAELVQPGAPVKLSCKASGYIFTSYWMNWVKQRPGRGLEWIGRIDPSDSKIHYNQKFKDKATLTVDRSSSTAYIQLGSLTSEDSAVYYCAKEGGLRRGDYAMDYWGQGTSVTVSS
VL: DIVMTQSPATLSVTPGDRVSLSCRASQSISDYLHWYQQKSHESPRLLIKYASQSISGIPSRFSGSGSGSDFTLSINSVEPEDVGVYYCQNGHNFPRTFGGGTKLEIK
notes: Mouse hybridoma antibody
IC50 [1]: 0.307 µg/mL | binding result [2]: binds | binding result [3]: no binding (tested: 5 ug/ml) | binding result [4]: no binding (tested: 5 ug/ml) | binding result [5]: no binding (tested: 5 ug/ml) | binding result [6]: binds

Further lines, results first:

binding result (laminin α-4): no binding
B1: human MCAM I141A mutant displayed on mammalian cells (Example 5) (receptor)
chain: T1 chain with I118A
notes: construct and any tag not described

binding result (laminin α-4): no binding
B2: human MCAM D216A mutant displayed on mammalian cells (Example 5) (receptor)
chain: T1 chain with D193A
notes: as for B1

binding result (laminin α-4): no binding
B3: human MCAM Y318A mutant displayed on mammalian cells (Example 5) (receptor)
chain: T1 chain with Y295A
notes: as for B1
